# Patent publication US20160264664A1 (Ablynx, published 2016)
# Positions count from the first letter of the chain named.
# T1: mouse P2X7 (mouse, UniProt Q9Z1M0 1-595)
# T1 construct: on transfected CHO or Hek293 cells, or endogenous on Yac-1 cells; also called mP2X7; mouse purinoceptor P2X7
# T1 sequence: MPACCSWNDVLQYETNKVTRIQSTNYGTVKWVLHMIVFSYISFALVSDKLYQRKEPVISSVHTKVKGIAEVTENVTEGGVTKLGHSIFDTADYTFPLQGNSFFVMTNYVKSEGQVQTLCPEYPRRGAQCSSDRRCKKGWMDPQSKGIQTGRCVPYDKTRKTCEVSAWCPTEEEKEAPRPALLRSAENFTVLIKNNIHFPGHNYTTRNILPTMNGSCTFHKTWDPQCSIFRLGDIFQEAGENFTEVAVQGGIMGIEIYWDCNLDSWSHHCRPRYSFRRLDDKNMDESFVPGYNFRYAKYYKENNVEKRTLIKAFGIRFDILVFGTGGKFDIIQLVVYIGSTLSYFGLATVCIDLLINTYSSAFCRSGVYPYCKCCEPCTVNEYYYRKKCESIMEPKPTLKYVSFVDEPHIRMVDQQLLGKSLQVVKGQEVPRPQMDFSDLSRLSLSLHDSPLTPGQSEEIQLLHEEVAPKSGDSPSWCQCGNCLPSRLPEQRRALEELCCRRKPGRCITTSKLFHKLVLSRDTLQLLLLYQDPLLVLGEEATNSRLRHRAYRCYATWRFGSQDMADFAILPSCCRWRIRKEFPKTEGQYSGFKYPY
# B1: P2X7PMP1C9 (VHH)
# VHH: EVQLVESGGGLVQTGGSLRLSCAASGFTLDDYAIAWFRQAPGKEREGVSILSSIGKTFYADSVKDRFSITADGAKTTVFLQMNSLKPEDTAIYYCVAGHFVYNDGAISLNTARGSGFWGQGAQVTVSS
# notes: family 2; on phage or c-myc/His6-tagged in assays
# B2: P2X7PMP20B10 (VHH)
# VHH: B1 VHH with A122T
# notes: as for B1
# B3: P2X7PMP6A11 (VHH)
# VHH: EVQLVESGGGLVQAGGSLRLSCAASGNFFRVNTMAWYRQAPGKQRELVADITRGDRTNYADTVNGRFTISRDNVRNTVYLQMNGLKPEDTAAYYCYARIELGVLEPRDYWGQGTQVTVSS
# notes: family 5, 2; on phage or c-myc/His6-tagged in assays
# B4: P2X7PMP8H4 (VHH)
# VHH: B3 VHH with N27S, T33N, A40G, T62S, N83D, A92V, R98T, E105V
# notes: family 5, 3; on phage or c-myc/His6-tagged in assays
# B5: P2X7PMP8D10 (VHH)
# VHH: B3 VHH with A14P, N27S, T33N, T62S, A92V, R98T
# notes: as for B4
# B6: P2X7PMP8H5 (VHH)
# VHH: B3 VHH with V2M
# notes: as for B3
# B7: P2X7PMP8B4 (VHH)
# VHH: B3 VHH with G84S
# notes: as for B3
# B8: P2X7PMP8B12 (VHH)
# VHH: B3 VHH with N27S, T33V, A40G, T62S, A92V, R98T
# notes: as for B4
# B9: P2X7PMP8H6 (VHH)
# VHH: B3 VHH with N27S, T33N, T62S, A92V, V103P, E105V
# notes: as for B3
# B10: P2X7PMP8E6 (VHH)
# VHH: B3 VHH with S17P
# notes: as for B3
# B11: P2X7PMP8H10 (VHH)
# VHH: B3 VHH with N27S, T33N, A40G, T62S, A92V, R98T
# notes: as for B4
# B12: P2X7PMP8C12 (VHH)
# VHH: B3 VHH with N27S, T33N, T62S, A92V, R98T
# notes: as for B4
# B13: P2X7PMP8A11 (VHH)
# VHH: B3 VHH with N27S, T33N, T62S, N83D, A92V, E105V
# notes: as for B3
# B14: P2X7PMP19C2 (VHH)
# VHH: EVQLVKSGGGLVQAGGSLRLSCAASPGTFSSFNMGWFRQTPGKEREFVAATSWSDISTYYADSVKGRFTISRDNAKNTVTLEMNSLKPEDTAVYYCAAGYYRGGYLGYRLTLEGSYDVWGQGTQVTVSS
# notes: family 15; on phage or c-myc/His6-tagged in assays
# B15: P2X7PMP19E3 (VHH)
# VHH: B14 VHH with V2M, K6E
# notes: as for B14
# Legend:
# mouse P2X7 [1] = target: T1, mouse P2X7; assay: flow cytometry, periplasmic extract pre-incubated with anti-myc-FITC, on mP2X7-Hek293 cells;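 further: periplasmic extract diluted 10-fold and premixed 45 min at 4 °C with FITC anti-myc antibody, giving pseudo-bivalent Nanobodies, before binding to the cells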
# Description: Ten-fold diluted PE were pre-incubation with 0.5 μg anti-myc FITC-conjugated antibodies (AbD Serotec, cat no. MCA2200F) (creating pseudo-bivalent Nanobodies in order to increase binding strength) in 0.1 ml PBS/10% FCS for 45 minutes at 4° C. […] Alternatively, sequential staining of 10-fold diluted PE with anti-myc FITC-conjugated antibodies was done after incubation with the cells.
# mouse P2X7 [2] = target: T1, mouse P2X7; assay: phage ELISA, mP2X7-CHO vs control CHO cells
# Description: Sub-confluent cells were rinsed with PBS and fixed using 4% paraformaldehyde in PBS for 10 minutes at RT. Fixed cells were washed three times with PBS, and blocked with 2% BSA in PBS for 2 hours. Following blocking, 10-fold diluted culture supernatant containing phage was added and incubated for 1 hour. Cell-bound phage was detected via mouse anti-M13-HRP-conjugate (GE Healthcare, Cat nr. E2886). Rat mAb Hano43 was used as positive control.
Binder,MFI FACS (pre-Myc incubation) (mouse P2X7 [1]),absorption ratio (ELISA) (mouse P2X7 [2])
B1,19 MFI,6 ratio
B2,85 MFI,8 ratio
B3,53 MFI,17 ratio
B4,65 MFI,27 ratio
B5,94 MFI,18 ratio
B6,24 MFI,12 ratio
B7,71 MFI,13 ratio
B8,93 MFI,38 ratio
B9,43 MFI,17 ratio
B10,69 MFI,12 ratio
B11,94 MFI,19 ratio
B12,89 MFI,28 ratio
B13,17 MFI,11 ratio
B14,64 MFI,18 ratio
B15,55 MFI,8 ratio
